Measured values taken from patent US20240158515A1 (Regeneron, published 2024).

Assays:
[1] = target: T1, human FGFR3b expressed with a C-terminal murine Fc tag (hFGFR3b.mFc) (human); assay: SPR Biacore, mAb captured on anti-hFc, 25C
T1 construct: called dimeric; also called REGN3153; dimeric human FGFR3b
T1 chain: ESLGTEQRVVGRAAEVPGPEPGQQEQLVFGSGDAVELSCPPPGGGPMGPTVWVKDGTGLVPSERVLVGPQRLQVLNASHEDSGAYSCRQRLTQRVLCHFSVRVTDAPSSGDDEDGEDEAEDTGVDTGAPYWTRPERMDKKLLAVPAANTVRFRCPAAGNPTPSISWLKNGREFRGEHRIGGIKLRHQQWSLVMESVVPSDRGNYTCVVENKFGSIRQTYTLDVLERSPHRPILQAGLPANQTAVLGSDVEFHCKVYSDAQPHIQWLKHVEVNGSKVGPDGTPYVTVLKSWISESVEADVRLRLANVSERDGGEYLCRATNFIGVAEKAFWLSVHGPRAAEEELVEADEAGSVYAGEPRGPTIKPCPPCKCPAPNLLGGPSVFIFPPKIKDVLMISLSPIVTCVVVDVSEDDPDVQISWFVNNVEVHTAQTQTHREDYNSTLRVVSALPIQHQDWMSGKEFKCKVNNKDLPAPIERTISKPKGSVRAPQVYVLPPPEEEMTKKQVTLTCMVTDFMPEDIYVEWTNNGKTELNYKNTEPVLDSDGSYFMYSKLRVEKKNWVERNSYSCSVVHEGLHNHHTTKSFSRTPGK
Experimental: (§1) The CM5 Biacore sensor surface was derivatized by amine coupling with a monoclonal mouse anti-human Fc monoclonal antibody (REGN2567). […] Antibody-reagent association was monitored for 5 minutes while dissociation in HBS-EP running buffer was monitored for 10 minutes. At the end of each cycle, the anti-FGFR3 antibody capture surface was regenerated using a 10 sec injection of 20 mM phosphoric acid. All binding kinetics experiments were performed at 25° C.
(§2) The specific SPR-Biacore sensorgrams were obtained by a double referencing procedure. The double referencing was performed by first subtracting the signal of each injection over a reference surface (anti-hFc) from the signal over the experimental surface (anti-hFc-captured anti-FGFR3 antibodies) thereby removing contributions from refractive index changes. In addition, running buffer injections were performed to allow subtraction of the signal changes resulting from the dissociation of captured antibodies from the coupled anti-hFc surface. Kinetic association (kₐ) and dissociation (kd) rate constants were determined by fitting the real-time sensorgrams to a 1:1 binding model using Scrubber v2.0c curve fitting software.

[2] = target: T2, murine FGFR3b expressed with a C-terminal myc-myc-hexahistidine tag (mFGFR3b.mmH) (murine); assay: SPR Biacore, mAb captured on anti-hFc, 25C
T2 construct: also called REGN3215; monomeric murine FGFR3b
T2 chain: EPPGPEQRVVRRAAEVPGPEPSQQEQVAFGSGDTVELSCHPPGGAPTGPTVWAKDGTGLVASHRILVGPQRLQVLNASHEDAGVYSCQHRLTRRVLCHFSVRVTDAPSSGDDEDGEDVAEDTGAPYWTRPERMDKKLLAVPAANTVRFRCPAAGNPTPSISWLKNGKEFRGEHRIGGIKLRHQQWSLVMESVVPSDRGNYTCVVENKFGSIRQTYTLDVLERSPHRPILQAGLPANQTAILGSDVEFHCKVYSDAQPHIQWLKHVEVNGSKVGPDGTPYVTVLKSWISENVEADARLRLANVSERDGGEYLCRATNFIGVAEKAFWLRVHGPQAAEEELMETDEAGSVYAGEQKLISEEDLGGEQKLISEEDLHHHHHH
Experimental: as §1, §2

[3] = target: T3, human FGFR3b expressed with a C-terminal myc-myc-hexahistidine tag (hFGFR3b.mmH) (human); assay: SPR Biacore, mAb captured on anti-hFc, 25C
T3 construct: also called REGN3152; monomeric human FGFR3b
T3 chain: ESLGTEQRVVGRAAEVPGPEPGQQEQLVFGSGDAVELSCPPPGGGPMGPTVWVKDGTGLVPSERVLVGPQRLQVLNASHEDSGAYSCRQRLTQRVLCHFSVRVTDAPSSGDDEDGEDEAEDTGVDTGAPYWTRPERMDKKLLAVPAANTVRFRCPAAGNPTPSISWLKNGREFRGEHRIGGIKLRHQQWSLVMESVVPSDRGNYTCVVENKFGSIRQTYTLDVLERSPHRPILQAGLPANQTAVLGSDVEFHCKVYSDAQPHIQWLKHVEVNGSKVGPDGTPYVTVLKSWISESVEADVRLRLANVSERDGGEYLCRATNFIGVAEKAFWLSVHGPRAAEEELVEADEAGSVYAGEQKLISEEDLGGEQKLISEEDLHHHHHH
Experimental: as §1, §2

[4] = target: T4, cynomolgus FGFR3b expressed with a C-terminal myc-myc-hexahistidine tag (mfFGFR3b.mmH) (cynomolgus); assay: SPR Biacore, mAb captured on anti-hFc, 25C
T4 construct: also called REGN3521; mf FGFR3b ecto (R357G)(E23-G377;R357G).mmH
T4 chain: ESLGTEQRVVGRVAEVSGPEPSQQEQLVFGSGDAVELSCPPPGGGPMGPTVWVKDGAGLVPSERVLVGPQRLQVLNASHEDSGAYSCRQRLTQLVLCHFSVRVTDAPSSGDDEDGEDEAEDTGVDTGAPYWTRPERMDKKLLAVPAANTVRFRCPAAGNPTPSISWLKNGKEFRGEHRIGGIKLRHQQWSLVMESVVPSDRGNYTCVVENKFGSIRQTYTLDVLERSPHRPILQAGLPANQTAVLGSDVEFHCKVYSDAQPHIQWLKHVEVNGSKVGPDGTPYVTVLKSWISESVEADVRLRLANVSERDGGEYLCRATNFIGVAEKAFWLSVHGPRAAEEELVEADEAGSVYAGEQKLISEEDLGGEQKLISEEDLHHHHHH
Experimental: as §1, §2

[5] = target: T5, human FGFR3c expressed with a C-terminal myc-myc-hexahistidine tag (hFGFR3c.mmH) (human, UniProt P22607 23-375); assay: SPR Biacore, mAb captured on anti-hFc, 25C; row marked NB
T5 construct: also called REGN3155; monomeric human FGFR3c
Experimental: as §1, §2

[6] = target: T1, human FGFR3b expressed with a …; assay: competition ELISA: 4 nM hFGFR3b-mFc binding to plate-coated hFGF acidic
Experimental: The fixed concentration of hFGFR3b or hFGFR3c proteins was selected to be near the concentration that generated 50% of the maximal binding (EC₅₀ value) to plate-adhered hFGF acidic or hFGF basic protein. […] The plates were then developed using TMB substrate solution (BD Biosciences) according to the manufacturer's recommended procedure and absorbance at 450 nm was measured on a Victor X5 plate reader.
Binding data were analyzed using a sigmoidal (four-parameter logistic) dose-response model using GraphPad Prism software. […] Percent blocking of FGFR3 antibody at a given concentration was calculated based on the formula shown below.
The ability of anti-FGFR3 antibodies to block human FGFR3b binding to hFGF acidic protein or hFGFR3c binding to hFGF acidic or hFGF basic proteins was evaluated using a sandwich ELISA-based blocking assay.

[7] = target: T5, human FGFR3c expressed with a …; assay: SPR Biacore, mAb captured on anti-hFc, 25C
Experimental: as §1, §2

B1: H4H30076P (antibody, human IgG4 S228P, kappa, V domains shown)
VH: EVQLVESGGGLVQPGGSLRLSCAASGFTVSSNYMSWVRQAPGKGLEWVSIIYSGGHTYYSDSVKGRFTISRHNSKNTLYLQMNSLRGGDTAVYYCARGYTSGWYGFDFWGQGTLVTVSS
VL: DIQMTQSPSSVSASVGDRVTITCRASQGISTWLAWYQQKPGKAPKLLIYAASSLQSGVPSRFSGTGSGTDFTLTISSLQPEDFATYYCQQTNSFPWTFGQGTKVEIKR
[1]
  30 nM hFGFR3b.mFc Bind (RU): 204 RU
  Kd: ≤ 0.0246 nM
  koff: ≤ 1e-05 s⁻¹
  kon: 407000 M⁻¹ s⁻¹
  t½: ≥ 1160 min
[2]
  90 nM mFGFR3b.mmH Bind (RU): 201 RU
  Kd: 0.141 nM
  koff: 3.61e-05 s⁻¹
  kon: 256000 M⁻¹ s⁻¹
  t½: 320 min
[3]
  90 nM hFGFR3b.mmH Bind (RU): 198 RU
  Kd: 0.186 nM
  koff: 4.39e-05 s⁻¹
  kon: 236000 M⁻¹ s⁻¹
  t½: 263 min
[4]
  90 nM mfFGFR3b.mmH Bind (RU): 180 RU
  Kd: 0.165 nM
  koff: 3.3e-05 s⁻¹
  kon: 200000 M⁻¹ s⁻¹
  t½: 350 min
[5]
  90 nM hFGFR3c.mmH Bind (RU): -9.7 RU

B2: H4H30089P2 (antibody, human IgG4 S228P, kappa, V domains shown)
VH: EVQLVESGGGLVQPGGSLRLSCIVSGFIFSSYEMSWLRQAPGKGLEWISYISSSGRVIYYADSVKGRFTISRDSAKNSLYLEMNSLRAEDTAIYYCTRKWDSSGPFDFWGQGTLVTVSS
VL: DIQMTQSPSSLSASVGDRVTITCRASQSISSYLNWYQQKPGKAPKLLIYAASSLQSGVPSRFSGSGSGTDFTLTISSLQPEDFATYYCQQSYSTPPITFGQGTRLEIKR
notes: HCVR 62, LCVR 70
[1]
  30 nM hFGFR3b.mFc Bind (RU): 214 RU
  Kd: 0.061 nM
  koff: 1.9e-05 s⁻¹
  kon: 312000 M⁻¹ s⁻¹
  t½: 608 min
[2]
  90 nM mFGFR3b.mmH Bind (RU): 60 RU
  Kd: 8.45 nM
  koff: 0.00238 s⁻¹
  kon: 281000 M⁻¹ s⁻¹
  t½: 4.9 min
[3]
  90 nM hFGFR3b.mmH Bind (RU): 152 RU
  Kd: 10.2 nM
  koff: 0.00282 s⁻¹
  kon: 276000 M⁻¹ s⁻¹
  t½: 4.1 min
[4]
  90 nM mfFGFR3b.mmH Bind (RU): 147 RU
  Kd: 10.3 nM
  koff: 0.00221 s⁻¹
  kon: 216000 M⁻¹ s⁻¹
  t½: 5.2 min
[5]
  90 nM hFGFR3c.mmH Bind (RU): -6.7 RU
[6]
  % Blocking at 200 nM mAb: 68%
  IC50: 15 nM

B3: H4H30095P2 (antibody, human IgG4 S228P, kappa, V domains shown)
VH: QVQLVQSGVEVKKPGASVKVSCKASGYTFKFYGISWVRQAPGQGLEWMGWISVYNGKTKYAQKLQGRVTMTTDTSTSTAYMELRSLRSDDTAVYFCARDGDYESSGYPFDYWGQGTLVTVSS
VL: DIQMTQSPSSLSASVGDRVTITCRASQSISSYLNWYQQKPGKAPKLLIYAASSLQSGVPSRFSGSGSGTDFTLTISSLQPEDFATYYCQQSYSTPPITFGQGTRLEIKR
[1]
  30 nM hFGFR3b.mFc Bind (RU): 405 RU
  Kd: 0.114 nM
  koff: 9.88e-05 s⁻¹
  kon: 867000 M⁻¹ s⁻¹
  t½: 117 min
[3]
  90 nM hFGFR3b.mmH Bind (RU): 239 RU
  Kd: 7.16 nM
  koff: 0.005 s⁻¹
  kon: 698000 M⁻¹ s⁻¹
  t½: 2.3 min
[4]
  90 nM mfFGFR3b.mmH Bind (RU): 206 RU
  Kd: 8.29 nM
  koff: 0.00437 s⁻¹
  kon: 527000 M⁻¹ s⁻¹
  t½: 2.6 min
[7]
  90 nM hFGFR3c.mmH Bind (RU): 222 RU
  Kd: 7.88 nM
  koff: 0.00454 s⁻¹
  kon: 575000 M⁻¹ s⁻¹
  t½: 2.5 min

B4: H4H30105P2 (antibody, human IgG4 S228P, kappa, V domains shown)
VH: EVQLVQSGAEVKKPGESLKISCKGSGYSFTSYWIAWVRQMPGKGLEWMGIIYPGDSDTRYSPSFQGQVTMSADKSIRIAYLQWSSLKASDTAMYYCARLDYSGSWFDYWGQGTLVTVSS
VL: not shown
[2]
  90 nM mFGFR3b.mmH Bind (RU): 8.3 RU
  koff: 0.00122 s⁻¹
  kon: 149000 M⁻¹ s⁻¹
  t½: 9.5 min
[3]
  90 nM hFGFR3b.mmH Bind (RU): 158 RU
  koff: 0.00511 s⁻¹
  kon: 438000 M⁻¹ s⁻¹
  t½: 2.3 min
[4]
  90 nM mfFGFR3b.mmH Bind (RU): 67.8 RU
  Kd: 14.7 nM
  koff: 0.00802 s⁻¹
  kon: 547000 M⁻¹ s⁻¹
  t½: 1.4 min
[7]
  90 nM hFGFR3c.mmH Bind (RU): 131 RU
  koff: 0.00652 s⁻¹
  kon: 387000 M⁻¹ s⁻¹
  t½: 1.8 min

B5: H4H30108P2 (antibody, human IgG4 S228P, kappa, V domains shown)
VH: QVQLVQSGAEVKKPGASVKVSCKASGYTFNSYDVNWVRQATGQGLEWMGWMNPHSGNTGYAQKFQGRVTMTRDTSTSTSYMELSSLTSEDTAVYYCARGPFSLLSAEFFQHWGQGTLVTVSS
VL: not shown
[1]
  30 nM hFGFR3b.mFc Bind (RU): 213 RU
  koff: ≤ 1e-05 s⁻¹
  kon: 311000 M⁻¹ s⁻¹
  t½: ≥ 1160 min
[2]
  90 nM mFGFR3b.mmH Bind (RU): 121 RU
  koff: 0.00199 s⁻¹
  kon: 162000 M⁻¹ s⁻¹
  t½: 5.8 min
[3]
  90 nM hFGFR3b.mmH Bind (RU): 227 RU
  koff: 0.000159 s⁻¹
  kon: 176000 M⁻¹ s⁻¹
  t½: 72.6 min
[4]
  90 nM mfFGFR3b.mmH Bind (RU): 212 RU
  Kd: 0.909 nM
  koff: 0.000136 s⁻¹
  kon: 149000 M⁻¹ s⁻¹
  t½: 85.2 min
[5]
  90 nM hFGFR3c.mmH Bind (RU): -2.5 RU

B6: H4H30093P2 (antibody, human IgG4 S228P, kappa, V domains shown)
VH: QVQLVESGGGLVKPGGSLRLSCAASGFTFNDYPMSWIRQAPGKGLEWVSYITSSSGSTIYYADSVKGRFTISRDNAKNSLYLQMNSLRAEDTAVYYCAREVVVATIGGYYGMDVWGQGTTVTVSS
VL: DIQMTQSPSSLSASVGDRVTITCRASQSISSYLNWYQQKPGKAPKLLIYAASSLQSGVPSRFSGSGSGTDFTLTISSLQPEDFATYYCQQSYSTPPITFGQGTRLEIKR
notes: HCVR 82, LCVR 90
[1]
  30 nM hFGFR3b.mFc Bind (RU): 317 RU
  Kd: 0.0265 nM
  koff: 1.55e-05 s⁻¹
  kon: 585000 M⁻¹ s⁻¹
  t½: 745 min
[2]
  90 nM mFGFR3b.mmH Bind (RU): 11.2 RU
  Kd: 70.9 nM
  koff: 0.00967 s⁻¹
  kon: 136000 M⁻¹ s⁻¹
  t½: 1.2 min
[3]
  90 nM hFGFR3b.mmH Bind (RU): 217 RU
  Kd: 5.14 nM
  koff: 0.00209 s⁻¹
  kon: 406000 M⁻¹ s⁻¹
  t½: 5.5 min
[4]
  binding result: no binding (tested: 90 nM)
[7]
  90 nM hFGFR3c.mmH Bind (RU): 182 RU
  Kd: 9.2 nM
  koff: 0.00334 s⁻¹
  kon: 363000 M⁻¹ s⁻¹
  t½: 3.5 min
[6]
  % Blocking at 200 nM mAb: 91%
  IC50: 2.5 nM
